Data published in paper PMC9352680, “A comprehensive thermodynamic model for RNA binding by the Saccharomyces cerevisiae Pumilio protein PUF4”.

T1: PUF4 RNA-binding domain (Saccharomyces cerevisiae, UniProt P25339 537-888)
T1 sequence: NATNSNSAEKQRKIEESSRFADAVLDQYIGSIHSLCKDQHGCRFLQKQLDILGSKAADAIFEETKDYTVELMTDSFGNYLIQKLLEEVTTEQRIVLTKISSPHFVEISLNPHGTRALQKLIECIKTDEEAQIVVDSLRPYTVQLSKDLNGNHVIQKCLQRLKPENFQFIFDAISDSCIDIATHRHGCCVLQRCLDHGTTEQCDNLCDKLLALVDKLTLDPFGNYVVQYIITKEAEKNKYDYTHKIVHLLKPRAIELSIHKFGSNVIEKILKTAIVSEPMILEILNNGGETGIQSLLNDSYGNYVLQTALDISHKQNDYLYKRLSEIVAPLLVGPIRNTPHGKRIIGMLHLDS


Biological target: T1, PUF4 RNA-binding domain
Test: Mg; RNA-MaP; 20 mM Na-HEPES pH 7.4, 30 mM KOAc, 0.75 mM MgCl2, 0.1% Tween-20, 5% glycerol, 0.1 mg/mL BSA, 2 mM DTT; 25 C; 0.0125-409.6 nM protein
Details: tags: N-His6-TEV cleaved; C-SNAP kept, Cy3B-labelled; label: tethered on chip by stalled RNA polymerase

Compared with ACAAACGCUAUAUUAUUAACACAAAC (ssRNA) [Id_ii_S3_P5E.3_K5.2_C5.2_[C-2G]_[T-1C]_H5.2_A5.1_F5.1_T5.2_[T11A]_[A12C]], ACAAACUAUAUAUUAUUACAACAAAC (ssRNA) [Id_ii_S3_P5E.3_K5.2_C5.2_[C-2T]_[T-1A]_H5.2_A5.1_F5.1_T5.2_[T11C]] is 60-fold lower in Kd: 812 nM for the first, 13.5 nM for the second. The second binds more tightly here.

Going from ACAAACCCACACUAUUAAGACAAAC (ssRNA) [Id_ii_S3_P4E.4_K4.3_C4.2_[T-1C]_H4.3_A4.1_F4.1_T4.2_[G10A]_[T11G]] to UCUCUUUGUAUUCUUUUCUCUU (ssRNA) [Ic_S1_P5E.1_K5.1_C5.1_H5.1_A5.1_[A7C]_F5.1_[A10T]_T5.1], the Kd falls from > 2300 nM to 28.6 nM. The second binds more tightly here.

Going from ACAAACCAACACUAUUACGACAAAC (ssRNA) [Id_ii_S3_P4E.4_K4.3_C4.2_[T-1A]_H4.3_A4.1_F4.1_T4.2_[G10C]_[T11G]] to ACAAACUAUAUAUUAUUAAUACAAAC (ssRNA) [Id_ii_S3_P5E.3_K5.2_C5.2_[C-2T]_[T-1A]_H5.2_A5.1_F5.1_T5.2_[T11A]_[A12T]], the Kd falls from > 2300 nM to 18.3 nM.

First: ACAAACACUAUAUUAUUACAACAAAC (ssRNA) [Id_ii_S3_P5E.3_K5.2_C5.2_[C-2A]_[T-1C]_H5.2_A5.1_F5.1_T5.2_[T11C]]
Second: ACAAACGAUAUAUUAUUAAUACAAAC (ssRNA) [Id_ii_S3_P5E.3_K5.2_C5.2_[C-2G]_[T-1A]_H5.2_A5.1_F5.1_T5.2_[T11A]_[A12T]]
The Kd of the first is 1.6-fold higher: 459 nM for the first, 285 nM for the second. The second binds more tightly here.

Compared with ACAAACUUUAUAUUAUUACCACAAAC (ssRNA) [Id_ii_S3_P5E.3_K5.2_C5.2_[C-2T]_H5.2_A5.1_F5.1_T5.2_[T11C]_[A12C]], ACAAACGAUAUAUUAUUACCACAAAC (ssRNA) [Id_ii_S3_P5E.3_K5.2_C5.2_[C-2G]_[T-1A]_H5.2_A5.1_F5.1_T5.2_[T11C]_[A12C]] is 1.9-fold higher in Kd: 268 nM for the first, 519 nM for the second.

ACAAACGAUAUAUUAUUACAACAAAC (ssRNA) [Id_ii_S3_P5E.3_K5.2_C5.2_[C-2G]_[T-1A]_H5.2_A5.1_F5.1_T5.2_[T11C]] and ACAAACGAUAUAUUAUUAGGACAAAC (ssRNA) [Id_ii_S3_P5E.3_K5.2_C5.2_[C-2G]_[T-1A]_H5.2_A5.1_F5.1_T5.2_[T11G]_[A12G]] are within 1.5-fold of each other in Kd: 173 nM for the first, 164 nM for the second.

Going from ACAAACAAUAUAUUAUUAAAACAAAC (ssRNA) [Id_ii_S3_P5E.3_K5.2_C5.2_[C-2A]_[T-1A]_H5.2_A5.1_F5.1_T5.2_[T11A]] to ACAAACCGACACUAUUAAAACAAAC (ssRNA) [Id_ii_S3_P4E.4_K4.3_C4.2_[T-1G]_H4.3_A4.1_F4.1_T4.2_[G10A]_[T11A]], the Kd rises from 550 nM to > 2300 nM. The first binds more tightly here.

Going from ACAAACGUUAUAUUAUUACUACAAAC (ssRNA) [Id_ii_S3_P5E.3_K5.2_C5.2_[C-2G]_H5.2_A5.1_F5.1_T5.2_[T11C]_[A12T]] to UCUCUUGGCAUUAUUAUCUCUU (ssRNA) [Ib_S1_P5E.1_K5.1_C5.1_H5.1_[T1G]_[T3C]_A5.1_F5.1_T5.1], the Kd rises from 580 nM to 1040 nM (1.8-fold). The first binds more tightly here.

First: ACAAACCGACACUAUUAACACAAAC (ssRNA) [Id_ii_S3_P4E.4_K4.3_C4.2_[T-1G]_H4.3_A4.1_F4.1_T4.2_[G10A]_[T11C]]
Second: ACAAACGAUAUAUUAUUAACACAAAC (ssRNA) [Id_ii_S3_P5E.3_K5.2_C5.2_[C-2G]_[T-1A]_H5.2_A5.1_F5.1_T5.2_[T11A]_[A12C]]
The Kd of the first is higher: > 2300 nM for the first, 313 nM for the second. The second binds more tightly here.

ACAAACCAACACUAUUAACACAAAC (ssRNA) [Id_ii_S3_P4E.4_K4.3_C4.2_[T-1A]_H4.3_A4.1_F4.1_T4.2_[G10A]_[T11C]] and ACAAACCAACACUAUUAGUACAAAC (ssRNA) [Id_ii_S3_P4E.4_K4.3_C4.2_[T-1A]_H4.3_A4.1_F4.1_T4.2] cannot be ordered by Kd: > 2300 nM for the first, > 2300 nM for the second.

Compared with ACAAACACUAUAUUAUUAAAACAAAC (ssRNA) [Id_ii_S3_P5E.3_K5.2_C5.2_[C-2A]_[T-1C]_H5.2_A5.1_F5.1_T5.2_[T11A]], ACAAACUUUAUAUUAUUAGCACAAAC (ssRNA) [Id_ii_S3_P5E.3_K5.2_C5.2_[C-2T]_H5.2_A5.1_F5.1_T5.2_[T11G]_[A12C]] is 5.9-fold lower in Kd: 485 nM for the first, 82.9 nM for the second. The second binds more tightly here.

First: ACAAACAUUAUAUUAUUAGAACAAAC (ssRNA) [Id_ii_S3_P5E.3_K5.2_C5.2_[C-2A]_H5.2_A5.1_F5.1_T5.2_[T11G]]
Second: ACAAACAAUAUAUUAUUAUCACAAAC (ssRNA) [Id_ii_S3_P5E.3_K5.2_C5.2_[C-2A]_[T-1A]_H5.2_A5.1_F5.1_T5.2_[A12C]]
The Kd of the first is 4-fold lower: 144 nM for the first, 576 nM for the second. The first binds more tightly here.

Compared with ACAAACCAACACUAUUAUCACAAAC (ssRNA) [Id_ii_S3_P4E.4_K4.3_C4.2_[T-1A]_H4.3_A4.1_F4.1_T4.2_[G10T]_[T11C]], ACAAACACUAUAUUAUUAAGACAAAC (ssRNA) [Id_ii_S3_P5E.3_K5.2_C5.2_[C-2A]_[T-1C]_H5.2_A5.1_F5.1_T5.2_[T11A]_[A12G]] is lower in Kd: > 2300 nM for the first, 626 nM for the second.

ACAAACACUAUAUUAUUACGACAAAC (ssRNA) [Id_ii_S3_P5E.3_K5.2_C5.2_[C-2A]_[T-1C]_H5.2_A5.1_F5.1_T5.2_[T11C]_[A12G]] and ACAAACCCUAUAUUAUUACUACAAAC (ssRNA) [Id_ii_S3_P5E.3_K5.2_C5.2_[T-1C]_H5.2_A5.1_F5.1_T5.2_[T11C]_[A12T]] are within 1.5-fold of each other in Kd: 493 nM for the first, 400 nM for the second.

ACAAACAAUAUAUUAUUAAUACAAAC (ssRNA) [Id_ii_S3_P5E.3_K5.2_C5.2_[C-2A]_[T-1A]_H5.2_A5.1_F5.1_T5.2_[T11A]_[A12T]] and ACAAACGAUAUAUUAUUAAAACAAAC (ssRNA) [Id_ii_S3_P5E.3_K5.2_C5.2_[C-2G]_[T-1A]_H5.2_A5.1_F5.1_T5.2_[T11A]] are within 1.5-fold of each other in Kd: 614 nM for the first, 704 nM for the second.

For ACAAACUCUAUAUUAUUACGACAAAC (ssRNA) [Id_ii_S3_P5E.3_K5.2_C5.2_[C-2T]_[T-1C]_H5.2_A5.1_F5.1_T5.2_[T11C]_[A12G]], the Kd was 230 nM.
